Target: T1, biotinylated recombinant human BCMA (ACROS Cat# BC7-H82F0) (human, UniProt Q02223 1-54, biotinylated)
T1 construct: Bought reagent; also called biotinylated Human BCMA Protein, ACRO Biosystems; recombinant BCMA protein
T1 sequence (looked up): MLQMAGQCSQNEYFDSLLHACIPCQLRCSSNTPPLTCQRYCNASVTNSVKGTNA
Experiment: flow cytometry, CAR T cells stained with biotinylated antigen

binding result: binds
B1: anti-BCMA CAR, expressed on gene-edited human T cells (other)
chain: QVQLVQSGAELKKPGASVKVSCKASGNTLTNYVIHWVRQAPGQRLEWMGYILPYNDLTKYSQKFQGRVTITRDKSASTAYMELSSLRSEDTAVYYCTRWDWDGFFDPWGQGTTVTVSSGGGGSGGGGSGGGGSEIVMTQSPATLSVSPGERASISCRASQSLVHSNGNTHLHWYQQRPGQAPRLLIYSVSNRFSEVPARFSGSGSGTDFTLTISSVESEDFAVYYCSQTSHIPYTFGGGTKLEIKSAAAFVPVFLPAKPTTTPAPRPPTPAPTIASQPLSLRPEACRPAAGGAVHTRGLDFACDIYIWAPLAGTCGVLLLSLVITLYCNHRNRKRGRKKLLYIFKQPFMRPVQTTQEEDGCSCRFPEEEEGGCELRVKFSRSADAPAYQQGQNQLYNELNLGRREEYDVLDKRRGRDPEMGGKPRRKNPQEGLYNELQKDKMAEAYSEIGMKGERRRGKGHDGLYQGLSTATKDTYDALHMQALPPR
notes: also called anti-BCMA (4-1BB co-stim) CAR
